Assay results from the supplement of paper PMC7877785.
± gives the uncertainty stated by the source.

Assay: self-splicing fitness, log relative to wild type (ln ratio); higher = more splicing; Tetrahymena group I intron in knt gene, E. coli kanamycin selection, DiMSum; sequences stand for … in CUCUCU…GGAGGGAAAAGUUAUCAGGCAUGCACCUGGUAGCUAGUCUUUAAACCAAUAGAUUGCAUCGGUUUAAAAGGCAAGACCGUCAAAUUGCGGGAAAGGGGUCAACAGCCGUUCAGUACCAAGUCUCAGGGGAAACUUUGAGAUGGCCUUGCAAAGGGUAUGGUAAUAAGCUGACGGACAUGGUCCUAACCACGCAGCCAAGUCCUAAGUCAACAGAUCUUCUGUUGAUAUGGAUGCAGUUCACAGACUAAAUGUCGGUCGGGGAAGAUGUAUUCUUCUCAUAAGAUAUAGUCGGACCUCUCCUUAAUGGGAGCUAGCGGAUGAAGUGAUGCAACACUGGAGCCGCUGGGAACUAAUUUGUAUGCGAAAGUAUAUUGAUUAGUUUUGGAGUACUCGUGGUCG
How it was run: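 DiMSum derived fitness as the error-weighted combination of fold changes across replicates, kanamycin versus no kanamycin, normalised to wild type. E. coli BL21(DE3) held the library, which randomised all eight P1ex-region intron nucleotides within the knt kanamycin-resistance gene on pET-22b(+). Six replicate transformations grew overnight at 37°C or 30°C on LB agar with or without 25 μg/mL kanamycin, also containing 100 μg/mL carbenicillin, 50 μM IPTG and 0.2% rhamnose, and pooled colonies were amplicon-sequenced on an Illumina HiSeq 2500.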

Row | Sequence | self-splicing fitness (ln) (30 °C) | self-splicing fitness (ln) (37 °C)
1 | UGCCAGCAAUAUUACGUUAA | -2.48 ± 0.15 | -0.729 ± 0.095
2 | AUUCAGCAAUAUUACGCAAU | -2.4 ± 0.23 | -0.772 ± 0.22
3 | GCCCAGCAAUAUUACGUAUA | -2.1 ± 0.11 | -1.33 ± 0.11
4 | UGCCAGCAAUAUUACGCCUG | -2.1 ± 0.16 | -0.0397 ± 0.12
5 | CAUCAGCAAUAUUACGACCU | -2.49 ± 0.31 | -1.17 ± 0.29
6 | ACUGAGCAAUAUUACGAGUG | -3.1 ± 0.12 | -2.76 ± 0.14
7 | AUCAAGCAAUAUUACGCGAU | -4.42 ± 0.33 | -3.08 ± 0.3
8 | CCCCAGCAAUAUUACGUGGG | -3.83 ± 0.12 | -2.81 ± 0.14
9 | GCAAAGCAAUAUUACGCCUA | -3.76 ± 0.42 | -1.11 ± 0.21
10 | UGUAAGCAAUAUUACGAAAC | -4.22 ± 0.3 | -2.95 ± 0.25
11 | CCGAAGCAAUAUUACGGUAA | -1.62 ± 0.13 | -3.15 ± 0.23
12 | UAGAAGCAAUAUUACGGUGA | -1.28 ± 0.12 | -0.667 ± 0.12
13 | AGCUAGCAAUAUUACGUCAG | -3.09 ± 0.18 | -2.84 ± 0.22
14 | UGACAGCAAUAUUACGAAAU | -3.12 ± 0.19 | -2.74 ± 0.24
15 | AGGCAGCAAUAUUACGAGGA | -3.31 ± 0.28 | -2.55 ± 0.26
16 | UUCCAGCAAUAUUACGUCUA | -0.638 ± 0.082 | 0.0519 ± 0.093
17 | GCGGAGCAAUAUUACGAUAA | – | -2.08 ± 0.35
18 | UCCGAGCAAUAUUACGAAGA | -1.62 ± 0.21 | -1.12 ± 0.18
19 | AUUCAGCAAUAUUACGUCAU | -0.863 ± 0.059 | 0.0811 ± 0.071
20 | AAGCAGCAAUAUUACGGAUU | -0.723 ± 0.055 | -0.000157 ± 0.077
21 | AUAUAGCAAUAUUACGCAAA | -1.94 ± 0.24 | -1.69 ± 0.24
22 | UCUUAGCAAUAUUACGAGGC | -3.01 ± 0.46 | –
23 | GAACAGCAAUAUUACGGAGC | -1.93 ± 0.057 | -1.13 ± 0.083
24 | UCGUAGCAAUAUUACGGCGG | -2.41 ± 0.14 | -0.883 ± 0.15
25 | UCGAAGCAAUAUUACGUACG | -1.01 ± 0.082 | 0.00936 ± 0.11

Row | Sequence | self-splicing fitness (ln) (30 °C) | self-splicing fitness (ln) (37 °C)
26 | UUGCAGCAAUAUUACGUGUA | -1.52 ± 0.11 | -1.07 ± 0.1
27 | ACAGAGCAAUAUUACGACUU | -2.44 ± 0.16 | -1.52 ± 0.15
28 | CUAGAGCAAUAUUACGUCGG | -0.971 ± 0.095 | -0.975 ± 0.1
29 | UUCCAGCAAUAUUACGCCGU | -2.53 ± 0.16 | -1.43 ± 0.23
30 | AGUCAGCAAUAUUACGUCCU | -0.258 ± 0.1 | -0.279 ± 0.15
31 | AACGAGCAAUAUUACGUCUG | -3.17 ± 0.2 | -1.63 ± 0.16
32 | ACGGAGCAAUAUUACGUUCA | -1.94 ± 0.18 | -0.749 ± 0.13
33 | GGGAAGCAAUAUUACGUUCA | 0.0857 ± 0.1 | -0.473 ± 0.14
34 | AAUAAGCAAUAUUACGUAUU | -3.58 ± 0.17 | -2.22 ± 0.15
35 | GAAAAGCAAUAUUACGACUU | -0.183 ± 0.063 | 0.52 ± 0.096
36 | AUGUAGCAAUAUUACGUCAG | -3.5 ± 0.18 | -2.25 ± 0.16
37 | GACGAGCAAUAUUACGCCAG | – | -2.63 ± 0.28
38 | GACCAGCAAUAUUACGCCGC | -3.75 ± 0.32 | –
39 | CCAGAGCAAUAUUACGUAGC | -3.23 ± 0.19 | -2.38 ± 0.26
40 | UACUAGCAAUAUUACGUGCG | -0.684 ± 0.08 | -1.31 ± 0.1
41 | GGCUAGCAAUAUUACGGUAU | -0.65 ± 0.061 | 0.376 ± 0.084
42 | AGCCAGCAAUAUUACGGGGC | -3.88 ± 0.15 | -3.13 ± 0.14
43 | AAUUAGCAAUAUUACGUAGU | -2.9 ± 0.16 | -0.462 ± 0.1
44 | CUUGAGCAAUAUUACGGCCG | – | -0.18 ± 0.27
45 | AACAAGCAAUAUUACGUUAC | -3.54 ± 0.11 | -3.01 ± 0.18
46 | CAGCAGCAAUAUUACGGCUU | -0.00706 ± 0.07 | 0.453 ± 0.088
47 | UUCGAGCAAUAUUACGACUU | -3.32 ± 0.29 | -1.49 ± 0.29
48 | UAUUAGCAAUAUUACGAUGG | -1.24 ± 0.094 | -0.174 ± 0.11
49 | AACGAGCAAUAUUACGUUGU | -3.8 ± 0.098 | -3.3 ± 0.13
50 | UAUGAGCAAUAUUACGCUAU | -1.38 ± 0.31 | -1.3 ± 0.23

Row | Sequence | self-splicing fitness (ln) (30 °C) | self-splicing fitness (ln) (37 °C)
51 | CCCGAGCAAUAUUACGUCCC | -2.8 ± 0.24 | -2.3 ± 0.49
52 | UCCCAGCAAUAUUACGGGGG | -4 ± 0.18 | -3.66 ± 0.33
53 | CUUGAGCAAUAUUACGCUUC | -2.91 ± 0.28 | -1.96 ± 0.45
54 | UGCUAGCAAUAUUACGAGAC | -3.12 ± 0.35 | -2.11 ± 0.36
55 | UUGAAGCAAUAUUACGUGGU | -3.78 ± 0.25 | -2.94 ± 0.34
56 | AACAAGCAAUAUUACGAAUC | -3.22 ± 0.17 | -2.24 ± 0.13
57 | GGAAAGCAAUAUUACGGGAU | -2.64 ± 0.17 | -1.1 ± 0.14
58 | ACGUAGCAAUAUUACGGCAA | -1.49 ± 0.1 | -1.15 ± 0.09
59 | UGGGAGCAAUAUUACGCGAA | -1.59 ± 0.23 | -1.67 ± 0.34
60 | GUAGAGCAAUAUUACGUAUG | -3.88 ± 0.22 | -3.78 ± 0.23
61 | GAUCAGCAAUAUUACGUGCA | -0.293 ± 0.072 | -0.489 ± 0.085
62 | ACCAAGCAAUAUUACGAAAU | -2.89 ± 0.12 | -2.08 ± 0.15
63 | CGUUAGCAAUAUUACGUAUC | – | -2.15 ± 0.28
64 | ACCAAGCAAUAUUACGACAA | -2.14 ± 0.15 | -1.11 ± 0.12
65 | AAGGAGCAAUAUUACGUUUC | -3.26 ± 0.43 | -2.26 ± 0.43
66 | GCAGAGCAAUAUUACGCGGU | -4.68 ± 0.29 | -3.16 ± 0.37
67 | GACUAGCAAUAUUACGGUAG | -0.551 ± 0.12 | -0.15 ± 0.14
68 | CGUAAGCAAUAUUACGCUAC | – | -1.98 ± 0.4
69 | AUCGAGCAAUAUUACGUUCG | -3.25 ± 0.2 | -2.52 ± 0.24
70 | AAUCAGCAAUAUUACGGAAA | -1.19 ± 0.099 | 0.0734 ± 0.12
71 | GCGAAGCAAUAUUACGUGCA | -1.21 ± 0.13 | -0.452 ± 0.097
72 | CUCUAGCAAUAUUACGAGCG | -2.79 ± 0.14 | -2.73 ± 0.16
73 | CUUAAGCAAUAUUACGUCGA | -1.85 ± 0.19 | -2.19 ± 0.38
74 | CAUAAGCAAUAUUACGUUAC | -3.85 ± 0.24 | -2.15 ± 0.24
75 | CUCAAGCAAUAUUACGACUU | -2.2 ± 0.18 | –

Row | Sequence | self-splicing fitness (ln) (30 °C) | self-splicing fitness (ln) (37 °C)
76 | UCGUAGCAAUAUUACGGCAA | -2.52 ± 0.36 | -0.888 ± 0.27
77 | CUUAAGCAAUAUUACGUUUC | -3.98 ± 0.17 | -3.23 ± 0.28
78 | CUUAAGCAAUAUUACGCGGC | -2.93 ± 0.24 | -2.48 ± 0.27
79 | CUGGAGCAAUAUUACGGAUC | -2.82 ± 0.21 | -2.87 ± 0.35
80 | AUACAGCAAUAUUACGACAC | -0.517 ± 0.11 | -1.31 ± 0.13
81 | GAGCAGCAAUAUUACGUGAA | -0.549 ± 0.079 | -0.526 ± 0.13
82 | GGCCAGCAAUAUUACGAGCU | -2.58 ± 0.4 | –
83 | UAUCAGCAAUAUUACGACCC | -1.87 ± 0.15 | -1.71 ± 0.18
84 | CCGGAGCAAUAUUACGAAGC | – | -2.8 ± 0.36
85 | CAGUAGCAAUAUUACGGCAU | -4.45 ± 0.27 | -1.78 ± 0.18
86 | CUGCAGCAAUAUUACGGAGC | -3.93 ± 0.47 | -2.61 ± 0.31
87 | GAAUAGCAAUAUUACGUCUU | -0.449 ± 0.059 | 0.342 ± 0.074
88 | UUGCAGCAAUAUUACGACCA | -1.8 ± 0.24 | -0.0142 ± 0.18
89 | GAAUAGCAAUAUUACGCCAA | -2.44 ± 0.23 | -1.39 ± 0.16
90 | GAGCAGCAAUAUUACGGCAG | -2.34 ± 0.16 | -1.69 ± 0.19
91 | AUUUAGCAAUAUUACGGGUA | -2.72 ± 0.3 | -1.17 ± 0.17
92 | GGGCAGCAAUAUUACGGCCG | -1.5 ± 0.16 | -1.59 ± 0.26
93 | AGCAAGCAAUAUUACGCUCC | -3.78 ± 0.4 | -1.58 ± 0.39
94 | UCUCAGCAAUAUUACGGCUG | -2.11 ± 0.13 | -2.21 ± 0.28
95 | AUCCAGCAAUAUUACGAUGA | -0.862 ± 0.086 | -0.285 ± 0.094
96 | GAUGAGCAAUAUUACGCAGG | – | -2.24 ± 0.43
97 | ACCUAGCAAUAUUACGAAAA | -2.66 ± 0.18 | -1.7 ± 0.13
98 | AUCUAGCAAUAUUACGGUUC | -2.94 ± 0.32 | -2.34 ± 0.32
